We go through one protein from ChEMBL document CHEMBL1134058, “Phospho-Azatyrosine, a less effective protein-tyrosine phosphatase substrate than phosphotyrosine” (Bioorg Med Chem Lett, 2001).

Substrate in data set [1]: CC(=O)N[C@@H](CC(=O)O)C(=O)N[C@@H](C)C(=O)N[C@@H](CC(=O)O)C(=O)N[C@@H](CCC(=O)O)C(=O)N[C@@H](Cc1ccc(OP(=O)(O)O)cc1)C(=O)N[C@@H](CC(C)C)C(N)=O
The data set is described as follows: (§1) Binding affinity constant against mammalian protein-tyrosine phosphatase 1 (PTP1).

Substrate in data set [2]: CC(=O)N[C@@H](CC(=O)O)C(=O)N[C@@H](C)C(=O)N[C@@H](CC(=O)O)C(=O)N[C@@H](CCC(=O)O)C(=O)N[C@@H](Cc1ccc(OP(=O)(O)O)cn1)C(=O)N[C@@H](CC(C)C)C(N)=O
The description is as §1.

B1: Tyrosine-protein phosphatase non-receptor type 1 (Homo sapiens), P18031 (protein)
chain: MEMEKEFEQIDKSGSWAAIYQDIRHEASDFPCRVAKLPKNKNRNRYRDVSPFDHSRIKLHQEDNDYINASLIKMEEAQRSYILTQGPLPNTCGHFWEMVWEQKSRGVVMLNRVMEKGSLKCAQYWPQKEEKEMIFEDTNLKLTLISEDIKSYYTVRQLELENLTTQETREILHFHYTTWPDFGVPESPASFLNFLFKVRESGSLSPEHGPVVVHCSAGIGRSGTFCLADTCLLLMDKRKDPSSVDIKKVLLEMRKFRMGLIQTADQLRFSYLAVIEGAKFIMGDSSVQDQWKELSHEDLEPPPEHIPPPPRPPKRILEPHNGKCREFFPNHQWVKEETQEDKDCPIKEEKGSPLNAAPYGIESMSQDTEVRSRVVGGSLRGAQAASPAKGEPSLPEKDEDHALSYWKPFLVNMCVATVLTAGAYLCYRFLFNSNT
Take B1: the Km (in general, the substrate concentration at which the rate is half of its maximum) in data set [1] was determined as 3.6 µM; in data set [2], 210 µM.
